Reference: article PMC11480844 (2024)

B1: H2-Kb / Ed45 (parent complex)
chain 1: GEQVEQRPPHLSVREGDSAVIICTYTDPNSYYFFWYKQEPGAGLQLLMKVFSSTEINEGQGFTVLLNKKDKQLSLNLTAAHPGDSAVYFCAVSGTNAYKVIFGKGTHLHVLP
chain 2: EAAVTQSPRSKVAVTGGKVTLSCHQTNNHDYMYWYRQDTGHGLRLIHYSYVADSTEKGDIPDGYKASRPSQENFSLILELASLSQTAVYFCASARGFQDTQYFGPGTRLLVL
chain 3: not shown
chain 4: IQKTPQIQVYSRHPPENGKPNILNCYVTQFHPPHIEIQMLKNGKKIPKVEMSDMSFSKDWSFYILAHTEFTPTETDTYACRVKHDSMAEPKTVYWDRDM
chain 5: SIINFEKL
B2: H2-Kb / Ed10 (parent complex)
chain 1: GEQVEQRPPHLSVREGDSAFIICTYTDSATAYFYWYKQEPGAGLQLLMSVFSNVDRKEEQGLTVLLNKKDKRLSLNLTAAHPGDSAVYFCAVRGTGYQNFYFGKGTSLTVIP
chain 2: AQTIHQWPVAEIKAVGSPLSLGCTIKGKSSPNLYWYWQATGGTLQQLFYSITVGQVESVVQLNLSASRPKDDQFILSTEKLLLSHSGFYLCAWSPGYEQYFGPGTRLTVL
chain 3: not shown
chain 4: B1 chain 4
chain 5: SIINFEKL
Also: test concentration or dose not given here.

Variants of: B1
Experiment: % of reporter cells activated (NFAT-GFP), raw
chain 5 K7L was tested, and the ratio to parent was 0.569.
In the case of chain 5 K7A, the ratio to parent is reported as 0.925.
chain 5 K7C was tested, and the ratio to parent was 0.0944.
chain 5 K7W showed a ratio to parent of 1.18.
For chain 5 K7F, the ratio to parent was 0.418.
For chain 5 K7E, the ratio to parent was 0.0609.
With chain 5 K7Q the ratio to parent was 0.193.
In the case of chain 5 K7N, the ratio to parent is reported as 0.639.
Variant chain 5 L8Y has a ratio to parent of 1.85.
Variant chain 5 L8W has a ratio to parent of 1.7.
For chain 5 L8I, the ratio to parent was 1.62.
chain 5 L8A was tested, and the ratio to parent was 1.77.
Variant chain 5 L8E has a ratio to parent of 1.52.
In the case of chain 5 L8P, the ratio to parent is reported as 1.68.
Work on chain 5 L8K yielded a ratio to parent of 1.87.
chain 5 L8G showed a ratio to parent of 1.57.
Variant chain 5 L8D has a ratio to parent of 1.52.
With chain 5 L8S the ratio to parent was 1.53.
Variant chain 5 L8M has a ratio to parent of 1.65.
For chain 5 E6S, the ratio to parent was 0.801.
chain 5 E6V was tested, and the ratio to parent was 0.148.
Work on chain 5 E6Y yielded a ratio to parent of 0.198.
chain 5 E6P showed a ratio to parent of 1.12.
chain 5 E6L was tested, and the ratio to parent was 0.26.
With chain 5 E6A the ratio to parent was 1.48.
In the case of chain 5 E6K, the ratio to parent is reported as 0.861.
Work on chain 5 E6C yielded a ratio to parent of 0.258.
Work on chain 5 E6M yielded a ratio to parent of 0.312.
With chain 5 E6H the ratio to parent was 0.541.
Variant chain 5 S1R has a ratio to parent of 0.648.
With chain 5 S1T the ratio to parent was 0.483.
For chain 5 S1G, the ratio to parent was 0.388.
chain 5 S1A gave a ratio to parent of 0.0786.
In the case of chain 5 S1N, the ratio to parent is reported as 0.0722.
chain 5 S1I was tested, and the ratio to parent was 0.0549.
With chain 5 S1Q the ratio to parent was 0.331.
chain 5 N4R was tested, and the ratio to parent was 0.533.
chain 5 N4K was tested, and the ratio to parent was 1.07.
With chain 5 N4A the ratio to parent was 0.0797.
In the case of chain 5 N4W, the ratio to parent is reported as 0.125.
chain 5 N4H gave a ratio to parent of 0.668.
Variant chain 5 N4M has a ratio to parent of 0.0786.
For chain 5 N4T, the ratio to parent was 0.0812.
With chain 5 I2A the ratio to parent was 1.32.
Work on chain 5 I2M yielded a ratio to parent of 2.11.
With chain 5 I2P the ratio to parent was 1.32.
chain 5 I2L was tested, and the ratio to parent was 2.14.
For chain 5 I2F, the ratio to parent was 1.21.
chain 5 I2V gave a ratio to parent of 1.48.
In the case of chain 5 I2D, the ratio to parent is reported as 1.34.
In the case of chain 5 I2T, the ratio to parent is reported as 1.23.
Variant chain 5 I2C has a ratio to parent of 1.39.
With chain 5 I2R the ratio to parent was 1.63.
Work on chain 5 I2H yielded a ratio to parent of 1.61.
Work on chain 5 I2K yielded a ratio to parent of 1.83.
In the case of chain 5 I3K, the ratio to parent is reported as 2.08.
chain 5 I3H gave a ratio to parent of 2.02.
chain 5 I3N showed a ratio to parent of 1.85.
chain 5 I3M gave a ratio to parent of 2.2.
In the case of chain 5 I3S, the ratio to parent is reported as 1.96.
chain 5 I3A showed a ratio to parent of 2.14.
With chain 5 I3V the ratio to parent was 2.18.
For chain 5 I3R, the ratio to parent was 2.47.
chain 5 F5A gave a ratio to parent of 0.77.
Work on chain 5 F5I yielded a ratio to parent of 0.389.
For chain 5 F5S, the ratio to parent was 1.09.
chain 5 F5V showed a ratio to parent of 0.617.
chain 5 F5N was tested, and the ratio to parent was 1.23.
With chain 5 F5R the ratio to parent was 1.73.
Work on chain 5 F5E yielded a ratio to parent of 1.34.
With chain 5 F5C the ratio to parent was 1.61.

Variants of: B2
Experiment: % of reporter cells activated (NFAT-GFP), raw
chain 5 S1Q was tested, and the ratio to parent was 0.931.
In the case of chain 5 S1R, the ratio to parent is reported as 0.72.
chain 5 S1H gave a ratio to parent of 1.01.
For chain 5 S1D, the ratio to parent was 0.938.
Variant chain 5 S1L has a ratio to parent of 0.914.
chain 5 S1A gave a ratio to parent of 0.977.
For chain 5 S1W, the ratio to parent was 0.717.
Work on chain 5 S1F yielded a ratio to parent of 0.726.
With chain 5 S1T the ratio to parent was 1.01.
chain 5 S1Y showed a ratio to parent of 1.
chain 5 F5G was tested, and the ratio to parent was 0.581.
chain 5 F5H gave a ratio to parent of 0.876.
In the case of chain 5 F5N, the ratio to parent is reported as 0.711.
chain 5 F5I showed a ratio to parent of 0.815.
Variant chain 5 F5V has a ratio to parent of 0.775.
Work on chain 5 F5E yielded a ratio to parent of 0.78.
chain 5 F5Y was tested, and the ratio to parent was 1.03.
Work on chain 5 F5Q yielded a ratio to parent of 0.879.
With chain 5 F5R the ratio to parent was 0.815.
In the case of chain 5 F5M, the ratio to parent is reported as 0.958.
With chain 5 F5S the ratio to parent was 0.764.
chain 5 K7G was tested, and the ratio to parent was 0.79.
chain 5 K7T showed a ratio to parent of 0.102.
Work on chain 5 K7F yielded a ratio to parent of 0.184.
In the case of chain 5 K7I, the ratio to parent is reported as 0.00197.
With chain 5 K7L the ratio to parent was 0.461.
chain 5 K7V was tested, and the ratio to parent was 0.563.
With chain 5 K7C the ratio to parent was 0.143.
chain 5 K7A gave a ratio to parent of 0.495.
chain 5 K7D was tested, and the ratio to parent was 0.355.
Variant chain 5 K7W has a ratio to parent of 0.601.
chain 5 K7M gave a ratio to parent of 0.28.
Variant chain 5 K7P has a ratio to parent of 0.685.
chain 5 N4G was tested, and the ratio to parent was 0.0998.
chain 5 N4Y showed a ratio to parent of 0.354.
Work on chain 5 N4K yielded a ratio to parent of 0.342.
Work on chain 5 N4A yielded a ratio to parent of 0.353.
In the case of chain 5 N4V, the ratio to parent is reported as 0.00517.
chain 5 N4L was tested, and the ratio to parent was 0.728.
Work on chain 5 L8D yielded a ratio to parent of 0.803.
Work on chain 5 L8G yielded a ratio to parent of 0.937.
With chain 5 L8F the ratio to parent was 0.838.
In the case of chain 5 L8C, the ratio to parent is reported as 0.921.
chain 5 L8T showed a ratio to parent of 0.81.
chain 5 L8Q was tested, and the ratio to parent was 0.897.
chain 5 L8I showed a ratio to parent of 0.864.
chain 5 L8R was tested, and the ratio to parent was 0.949.
With chain 5 L8K the ratio to parent was 0.88.
chain 5 E6W was tested, and the ratio to parent was 0.00924.
chain 5 E6P gave a ratio to parent of 0.045.
Work on chain 5 E6R yielded a ratio to parent of 0.0435.
chain 5 E6D was tested, and the ratio to parent was 0.557.
chain 5 E6Y was tested, and the ratio to parent was 0.503.
In the case of chain 5 E6F, the ratio to parent is reported as 0.0734.
chain 5 E6S gave a ratio to parent of 0.0168.
With chain 5 E6H the ratio to parent was 0.377.
chain 5 E6A gave a ratio to parent of 0.0198.
For chain 5 E6N, the ratio to parent was 0.0352.
In the case of chain 5 E6G, the ratio to parent is reported as 0.824.
With chain 5 E6K the ratio to parent was 0.878.
Variant chain 5 E6C has a ratio to parent of 0.00556.
Variant chain 5 I3E has a ratio to parent of 0.916.
chain 5 I3T gave a ratio to parent of 0.829.
With chain 5 I3H the ratio to parent was 0.828.
chain 5 I3V gave a ratio to parent of 0.927.
With chain 5 I3N the ratio to parent was 0.683.
Work on chain 5 I3Q yielded a ratio to parent of 0.826.
chain 5 I3K showed a ratio to parent of 0.828.
chain 5 I3D showed a ratio to parent of 0.691.
Variant chain 5 I3A has a ratio to parent of 0.96.
chain 5 I3Y gave a ratio to parent of 0.368.
Variant chain 5 I2G has a ratio to parent of 0.939.
chain 5 I2H showed a ratio to parent of 0.915.
Variant chain 5 I2Y has a ratio to parent of 0.898.
With chain 5 I2W the ratio to parent was 0.751.
Work on chain 5 I2C yielded a ratio to parent of 0.907.
chain 5 I2T gave a ratio to parent of 1.02.
For chain 5 I2P, the ratio to parent was 0.973.
chain 5 I2V was tested, and the ratio to parent was 0.962.
